According to US20130243795A1 (Janssen / Centocor, published 2013):
Changes are numbered by the printed parent chain. Read-outs that look alike come from different tables or passages of the source. One block for each binder: values may come before it.

Tests used:
[1] = target: T1, Human CD27 ECD truncated (ECD 1-121, cleavage site, His6) (human); assay: ProteOn SPR; mAb captured via anti-human Fc; CD27 ECD as analyte
T1 construct: also called human CD27 ECD with His Tag; CD27-His
T1 chain: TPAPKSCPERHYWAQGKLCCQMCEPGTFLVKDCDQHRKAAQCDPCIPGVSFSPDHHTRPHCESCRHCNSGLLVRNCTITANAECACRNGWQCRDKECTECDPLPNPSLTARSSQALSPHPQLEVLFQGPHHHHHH

[2] = target: T1, Human CD27 ECD truncated (ECD 1-121, …); assay: ELISA of culture supernatants; binding to CD27 ECD; signal relative to the parent
[3] = target: T2, Human CD27, full length on the cell surface (human, UniProt P26842 21-260); assay: cell-based or functional assay
[4] = target: T2, Human CD27, full length on the cell …; assay: cell-based or functional assay; remark: listed apart in the source
[5] = target: T3, Human CD27 ECD, monomeric soluble (construct limits not stated) (human, UniProt P26842 20-191); assay: Biacore SPR, purified mAb
T3 construct: extracellular domain; target of the Biacore assays; also called monomeric soluble CD27; CD27-His

[6] = target: T4, Recombinant human CD27/Fc chimera (R&D Systems, Cat#382-CD) (human, UniProt P26842 20-191); assay: inhibition of IM-9 (CD70+) cell binding to immobilized CD27/Fc
T4 construct: extracellular domain; bought protein; also called huCD27-Fc; Hu CD27 Fc; Fc part of the bought chimera not given

[7] = target: T3, Human CD27 ECD, monomeric soluble …; assay: Biacore SPR; mAb captured via anti-mouse Fc; CD27 ECD as analyte; 25 C
[8] = target: T2, Human CD27, full length on the cell …; assay: cell-based or functional assay; remark: listed apart in the source
[9] = target: T2, Human CD27, full length on the cell …; assay: cell-based or functional assay; remark: listed apart in the source
[10] = target: T3, Human CD27 ECD, monomeric soluble …; assay: Biacore SPR, purified mAb; remark: listed apart in the source
[11] = target: T2, Human CD27, full length on the cell …; assay: cell-based or functional assay; remark: listed apart in the source
[12] = target: T2, Human CD27, full length on the cell …; assay: cell-based or functional assay; remark: listed apart in the source
[13] = target: T3, Human CD27 ECD, monomeric soluble …; assay: Biacore SPR, purified mAb, CD27 ECD
[14] = target: T1, Human CD27 ECD truncated (ECD 1-121, …); assay: ProteOn SPR, purified mAb, CD27-His
[15] = target: T3, Human CD27 ECD, monomeric soluble …; assay: Biacore SPR, purified mAb, CD27-His
[16] = target: T1, Human CD27 ECD truncated (ECD 1-121, …); assay: ProteOn SPR, culture supernatants
[17] = target: T1, Human CD27 ECD truncated (ECD 1-121, …); assay: ProteOn SPR, culture supernatants

T4 sequence (P26842 20-191, change not shown): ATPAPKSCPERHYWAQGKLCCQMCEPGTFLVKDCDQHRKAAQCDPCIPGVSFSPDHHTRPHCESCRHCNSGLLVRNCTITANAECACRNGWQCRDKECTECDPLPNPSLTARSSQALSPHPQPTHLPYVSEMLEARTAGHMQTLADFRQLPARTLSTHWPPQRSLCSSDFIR
T3 sequence (P26842 20-191): as the sequence (P26842 20-191, change not shown) above

B1: M69 (antibody, human IgG1, V domains shown)
VH: EVQLVQSGAEVKKPGESLKISCKGSGYAFSSSWMNWVRQMPGKGLEWMGRIYPGDGDTNYSPSFQGQVTISADKSISTAYLQWSSLKASDTAMYYCARSDYYGDYGFAYWGQGTLVTVSS
VL: DIVMTQSPDSLAVSLGERATINCKASQSVDYAGDSYMNWYQQKPGQPPKLLIYAASNLESGVPDRFSGSGSGTDFTLTISSLQAEDVAVYYCQQSNEDPYTFGQGTKLEIK
notes: also called H28/L35; C2177 HFR variant
- Kd [1]: 0.77 nM
- ELISA signal [2]: 1.09
- NFkB IC50 [3]: 0.11 nM

B2: M709 (antibody, V domains shown)
VH: B1 VH with P53A, G56A, N59A
VL: B1 VL with D34E, Y36F
notes: also called single-gene DNA ID 709
- NF-kB Assay IC50 [4]: 0.272 nM
- Kd [5]: 0.026 nM
- koff [5]: 5.89e-05 s⁻¹
- kon [5]: 2.3e+06 M⁻¹ s⁻¹

B3: M710 (antibody, V domains shown)
VH: B1 VH with P53A, G56A, S61A
VL: B1 VL with D34E, Y36F
notes: also called single-gene DNA ID 710
- NF-kB Assay IC50 [4]: 0.32 nM
- Kd [5]: 0.019 nM
- koff [5]: 4.88e-05 s⁻¹
- kon [5]: 2.55e+06 M⁻¹ s⁻¹

B7: M40 (antibody, human IgG1, V domains shown)
VH: QVQLQQSGPELVKPGASVKISCKASGYAFSSSWMNWVKQRPGKGLEWIGRIYPGDGDTNYNGKFKGKATLTADKSSSTAYMQLSSLTSEDSAVYFCARSDYYGDYGFAYWGQGTLVTVSA
VL: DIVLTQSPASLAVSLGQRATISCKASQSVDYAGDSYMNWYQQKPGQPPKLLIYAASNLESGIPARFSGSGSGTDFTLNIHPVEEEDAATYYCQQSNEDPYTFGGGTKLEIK
notes: chimeric; also called C2177 parent; C2177 parent chimera
- Kd [1]: 0.96 nM
- ELISA signal [2]: 1
- NF-kB Assay IC50 [4]: 0.466 nM
- Kd [5]: 1.24 nM
- koff [5]: 0.00132 s⁻¹
- kon [5]: 1.06e+06 M⁻¹ s⁻¹
- NFkB IC50 [3]: 0.14 nM

B10: C2191 (antibody, V domains shown)
VH: EVKLVESGGGLVKPGGSLKLSCAASGFTFSSYTMSWVRQTPEKRLEWVAYISSGGGNTYYPDSVKGRFTISRDNARNTLYLQMSSLRSEDTAMYYCSRHRGNPFDYWGQGTTLTVSS
VL: DIVLTQSPASLAVSLGQRATISCRASKSVSTSGYSFMHWYQQKPGQPPKLLIYLASNLESGVPARFSGSGSGTDFTLNIHPVEEEDAATYYCQHSRELPWTFGGGTKLEIK
notes: also called C2191 hybridoma mAb
- IC50 [6]: 0.059 µg/mL
- Kd [7]: 2.62 nM
- Agonism at 50 ug/ml (fold-increase in reporter gene signal relative to isotype control) [8]: 3.05 fold
- NF-kB reporter IC50 [8]: 0.08 µg/mL
- Plasma blast differentiation % Inhibition at 2.5 ug/ml [9]: 105%
- T-Cell Proliferation % Inhibition at highest concentration (30 ug/ml) [9]: 58.3%
- T-Cell Proliferation - CD4+ Cells IC50 [9]: 0.3 µg/mL

B12: M160 (antibody, human IgG4, V domains shown)
VH: QVQLVQSGAEVKKPGASVKVSCKASGYAFSSSWMNWVRQAPGQGLEWMGRIYSGDGDTNYNGKFKGRVTMTRDTSTSTVYMELSSLRSEDTAVYYCARSDYYGDYGFAYWGQGTLVTVSS
VL: DIQMTQSPSSLSASVGDRVTITCKASQSVDYAGDSFMNWYQQKPGKAPKLLIYAASNLESGVPSRFSGSGSGTDFTLTISSLQPEDFATYYCQQSNEDPYTFGQGTKVEIK
notes: also called H196,L219
- Kd [14]: 0.108 nM
- koff [14]: 0.000223 s⁻¹
- kon [14]: 2.07e+06 M⁻¹ s⁻¹
- Kd [15]: 0.117 nM
- koff [15]: 0.00018 s⁻¹
- kon [15]: 1.6e+06 M⁻¹ s⁻¹
- Kd [16]: 0.12 nM
- fold decrease in KD against the parental mAb M159 [17]: 20 fold

B13: M713 (antibody, V domains shown)
VH: B12 VH with G56A, N61A, G62Q
VL: B12 VL with D34E
notes: also called single-gene DNA ID 713
- NF-kB Assay IC50 [4]: 0.296 nM
- Kd [5]: 0.056 nM
- koff [5]: 1.16e-05 s⁻¹
- kon [5]: 206000 M⁻¹ s⁻¹

B14: M158 (antibody, human IgG4, V domains shown)
VH: B12 VH
VL: B12 VL with F36Y
notes: also called H196,L220
- Kd [15]: 0.439 nM
- koff [15]: 0.00066 s⁻¹
- kon [15]: 1.5e+06 M⁻¹ s⁻¹
- Kd [16]: 0.36 nM
- fold decrease in KD against the parental mAb M159 [17]: 6 fold

The next lines start with the values.

- NF-kB Assay IC50 [4]: 0.258 nM
- Kd [5]: 0.03 nM
- koff [5]: 5.82e-05 s⁻¹
- kon [5]: 1.97e+06 M⁻¹ s⁻¹
B4: M711 (antibody, V domains shown)
VH: B1 VH with P53S, G56A, S61N, P62Q, S63K, Q65K
VL: B12 VL with D34E
notes: also called single-gene DNA ID 711

- IC50 [6]: 0.059 µg/mL
- Kd [7]: 2.55 nM
- Agonism at 50 ug/ml (fold-increase in reporter gene signal relative to isotype control) [8]: 2.55 fold
- NF-kB reporter IC50 [8]: 0.105 µg/mL
- Plasma blast differentiation % Inhibition at 2.5 ug/ml [9]: 93%
- T-Cell Proliferation % Inhibition at highest concentration (30 ug/ml) [9]: 65.3%
- T-Cell Proliferation - CD4+ Cells IC50 [9]: 0.775 µg/mL
B5: C2186 (antibody, V domains shown)
VH: QVQLQQPGAELVKPGASVKLSCKASGYTFTNYWMNWVKQRPGRGLEWIGRIHPSDSETHYNQNFKSKATLTVDKSSSTAYIQLSSLTSEDSAVYYCARPVLYGDYGFPCWGQGTLVTVSA
VL: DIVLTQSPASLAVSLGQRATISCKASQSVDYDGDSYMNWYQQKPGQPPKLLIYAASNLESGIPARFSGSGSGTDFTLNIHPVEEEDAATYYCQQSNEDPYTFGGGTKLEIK

- IC50 [6]: 0.063 µg/mL
- Kd [7]: 3.07 nM
- Agonism at 50 ug/ml (fold-increase in reporter gene signal relative to isotype control) [8]: 1.85 fold
- NF-kB reporter IC50 [8]: 0.04 µg/mL
- Plasma blast differentiation % Inhibition at 2.5 ug/ml [9]: 78%
- T-Cell Proliferation % Inhibition at highest concentration (30 ug/ml) [9]: 75.4%
- T-Cell Proliferation - CD4+ Cells IC50 [9]: 0.245 µg/mL
B6: C2177 (antibody, V domains shown)
VH: B7 VH
VL: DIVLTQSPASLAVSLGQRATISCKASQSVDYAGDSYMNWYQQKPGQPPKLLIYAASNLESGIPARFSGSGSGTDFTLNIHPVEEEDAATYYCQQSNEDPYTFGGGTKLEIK
notes: also called C2177 hybridoma mAb

- IC50 [6]: 0.054 µg/mL
- Kd [7]: 0.21 nM
- Agonism at 50 ug/ml (fold-increase in reporter gene signal relative to isotype control) [8]: 5.39 fold
- NF-kB reporter IC50 [8]: 0.232 µg/mL
- Plasma blast differentiation % Inhibition at 2.5 ug/ml [9]: 74%
- T-Cell Proliferation % Inhibition at highest concentration (30 ug/ml) [9]: 75.7%
- T-Cell Proliferation - CD4+ Cells IC50 [9]: 0.445 µg/mL
B8: C2192 (antibody, V domains shown)
VH: B7 VH with S99R, D100W, Y101D, Y102G, D104N, G106F, A108D, L115T, V116L, A120S
VL: DIVMTQSHKFMSTSVGDRVSITCMASQDVGTAVAWYQRRPGQSPKLLIYWTSTRHTGVPDRFTGSGSGTDFTLTISNVQSEDLADYFCQQYSSYPLTFGSGTKLEIK

- Kd [1]: 7.9 nM
- ELISA signal [2]: 1.09
- NFkB IC50 [3]: 0.28 nM
B9: M91 (antibody, human IgG1, V domains shown)
VH: QVQLVESGGGLVKPGGSLRLSCAASGFTFSSYTMSWIRQAPGKGLEWVSYISSGGGNTYYPDSVKGRFTISRDNAKNSLYLQMNSLRAEDTAVYYCARHRGNPFDYWGQGTLVTVSS
VL: DIQMTQSPSSLSASVGDRVTITCRASKSVSTSGYSFMHWYQQKPGKAPKLLIYLASNLESGVPSRFSGSGSGTDFTFTISSLQPEDIATYYCQHSRELPWTFGQGTKVEIK
notes: also called H31/L42; C2191 HFR variant

- Kd [1]: 10.3 nM
- ELISA signal [2]: 1
- Kd [10]: 23.7 nM
- koff [10]: 0.0103 s⁻¹
- kon [10]: 435000 M⁻¹ s⁻¹
- NF-kB Assay IC50 [11]: 2.3 nM
- NFkB IC50 [12]: 0.045 nM
- Kd [13]: 13.7 nM
- NFkB IC50 [3]: 0.3 nM
B11: M41 (antibody, human IgG1, V domains shown)
VH: B10 VH
VL: B10 VL
notes: chimeric; also called C2191 parent; C2191 parent chimera

- Kd [14]: 0.127 nM
- koff [14]: 0.000234 s⁻¹
- kon [14]: 1.84e+06 M⁻¹ s⁻¹
- Kd [15]: 0.126 nM
- koff [15]: 0.000203 s⁻¹
- kon [15]: 1.62e+06 M⁻¹ s⁻¹
- Kd [16]: 0.1 nM
- fold decrease in KD against the parental mAb M159 [17]: 20 fold
B15: M166 (antibody, human IgG4, V domains shown)
VH: B12 VH
VL: B12 VL with G33H, D34E
notes: also called H196,L217
